Measurements as given in patent publication US12097241B2, “Methods of treating kidney failure, and/or improving or stablizing renal function using modified relaxin polypeptides” (BRISTOL-MYERS SQUIBB COMPANY, priority 2017, dated 2024).
pEC50: −log10 of the molar value. Like-named read-outs stand apart in the source and are kept apart here.

Key:
[1] = In vivo pharmacokinetic (PK) studies in rats; set-up: species or system Sprague-Dawley rats; conditions: rat, male Sprague-Dawley rats, single SC dose 1.0 mg/kg, serum ELISA; for AUC(0-inf): read-out: Rat PK AUC Total; for level at time molar at 24 h: read-out: Rat PK C24
Procedure: […] Blood samples were collected via jugular vein at different time points out to 72 hours. Blood samples were allowed to coagulate at room temperature (30-60 m) and then centrifuged (1500-2000) at 4° C. to obtain serum. After centrifugation serum samples were transferred to 96 well plates and stored at −80° C. until bioanalysis. Relaxin concentrations were measured from serum by ELISA.
Relaxin concentration-time profiles from individual animals were used for analysis. Pharmacokinetic parameters were calculated by non-compartmental methods using Phoenix WinNonlin (version 6.4) or Kinetica (version 5). Mean pharmacokinetic parameters Cmax, AUCinf, C24 and half-life were reported (Table 4). Table 4. In vivo PK data (abbreviations as in Table 3).

[2] = target: T1, human RXFP1 receptor (Homo sapiens, UniProt Q9HBX9); assay: Intracellular cAMP accumulation assay; format: cell-based; conditions: for EC50: CHO-K1 cells stably expressing human RXFP1, 10 min at 37° C., HTRF cAMP, average, read-out: hRXFP1/CHO-K1 cAMP EC50 (nM, avg)
T1 construct: expressed in transfected cells
T1 sequence (Q9HBX9 1-757): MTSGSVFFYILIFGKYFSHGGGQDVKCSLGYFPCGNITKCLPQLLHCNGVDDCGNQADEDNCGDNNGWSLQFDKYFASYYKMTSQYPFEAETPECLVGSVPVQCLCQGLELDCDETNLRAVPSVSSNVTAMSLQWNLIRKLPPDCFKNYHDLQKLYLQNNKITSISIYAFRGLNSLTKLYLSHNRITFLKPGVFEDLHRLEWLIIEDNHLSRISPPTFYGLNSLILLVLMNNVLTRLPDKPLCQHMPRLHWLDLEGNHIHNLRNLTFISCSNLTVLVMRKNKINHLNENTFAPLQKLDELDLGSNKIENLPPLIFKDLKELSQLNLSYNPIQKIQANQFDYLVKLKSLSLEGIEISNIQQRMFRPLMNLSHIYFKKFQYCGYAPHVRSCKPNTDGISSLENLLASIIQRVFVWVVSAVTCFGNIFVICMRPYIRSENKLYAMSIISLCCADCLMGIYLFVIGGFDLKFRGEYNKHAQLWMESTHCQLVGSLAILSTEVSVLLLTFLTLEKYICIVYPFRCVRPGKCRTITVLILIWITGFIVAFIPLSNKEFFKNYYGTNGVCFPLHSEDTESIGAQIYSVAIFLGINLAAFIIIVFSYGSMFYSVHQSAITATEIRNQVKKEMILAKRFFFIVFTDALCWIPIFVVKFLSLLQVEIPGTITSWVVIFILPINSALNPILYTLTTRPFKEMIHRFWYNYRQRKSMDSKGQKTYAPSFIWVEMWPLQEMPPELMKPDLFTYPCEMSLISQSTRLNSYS
Procedure: The intracellular cAMP accumulation assay described herein was used to assess relaxin bioactivity and potency.
CHO-K1 cells (ATCC; Cat. #CRL-9618) stably expressing the human RXFP1 receptor (locus number LOC59350) (10,000/well) were plated into 96-well plates and cultured overnight at 37° C. and 5% CO2. On the following day, the medium was removed from the wells and the cells were stimulated with the addition of ligand (relaxin polypeptide) in 50 uL buffer (1×HBSS, 5 mM HEPES (7.2), 0.5 mM IBMX, 0.1% BSA); incubation was for 10 min at 37° C. Unstimulated cells were utilized as reference controls. Reactions were terminated and cellular cAMP levels were measured using the Homogeneous Time Resolved Fluorescence (HTRF) Dynamic 2 cAMP kit (CisBio, #62AM4PEC) according to the manufacturer's protocol. Plates were analyzed using an EnVision 2104 Multilablel Reader (PerkinElmer). Signal was expressed in terms of the ratio of fluorescence intensity @ 665 nm/fluorescence intensity @620 nm×10,000. The concentration of cAMP in the sample was determined by comparison with standard curves generated from known concentrations of cAMP. The potency of each relaxin was determined using a ten-point concentration response curves which was performed in duplicate. The data were analyzed using Microsoft Excel, Version 2013 Xlfit software. Effective concentration 50 (EC50) values, the point at which the response was one-half maximal, were calculated using a four-parameter logistic equation that allowed for a variable-slope (Table 3).

SMILES | AUC(0-inf) [1] | level at time molar at 24 h [1] | EC50 [2] | pEC50 [2]
CC[C@H](C)[C@@H]1NC(=O)[C@H](C)NC(=O)[C@H]([C@@H](C)CC)NC(=O)[C@H](CCC(N)=O)NC(=O)[C@H](C)NC(=O)[C@H](CCCNC(=N)N)NC(=O)[C@H](C(C)C)NC(=O)[C@H](CC(C)C)NC(=O)[C@H](CCC(=O)O)NC(=O)[C@H](CCCNC(=N)N)NC(=O)CNC(=O)[C@@H](NC(=O)[C@H](CC(C)C)NC(=O)[C@H](CCCCN)NC(=O)[C@@H](NC(=O)[C@@H](NC(=O)[C@H](CCC(=O)O)NC(=O)[C@H](CCC(=O)O)NC(=O)[C@H](CCSC)NC(=O)[C@H](Cc2c[nH]c3ccccc23)NC(=O)[C@H](CO)NC(=O)[C@H](C)N)C(C)C)[C@@H](C)CC)CSSC[C@@H]2NC(=O)[C@@H](NC(=O)[C@H](CCCCN)NC(=O)[C@H](CC(N)=O)NC(=O)[C@H](C)NC(=O)[C@H](CC(C)C)NC(=O)[C@H](C)NC(=O)[C@H](CO)NC(=O)[C@H](Cc3ccc(O)cc3)NC(=O)[C@H](CC(C)C)NC(=O)[C@@H](N)Cc3ccc(C(C)=NOCCNC(=O)[C@H](CC(=O)O)NC(=O)[C@H](CCCNC(=N)N)NC(=O)[C@H](CC(=O)O)NC(=O)[C@H](CC(=O)O)NC(=O)[C@H](CCCNC(=N)N)NC(=O)[C@H](CC(=O)O)NC(=O)CCCCCCCCCCCCC(=O)O)cc3)CSSC[C@H](NC(=O)CNC(=O)[C@H](C(C)C)NC(=O)[C@H](Cc3c[nH]cn3)NC2=O)C(=O)N[C@@H]([C@@H](C)O)C(=O)N[C@@H](CCCCN)C(=O)N[C@@H](CCCNC(=N)N)C(=O)N[C@@H](CO)C(=O)N[C@@H](CC(C)C)C(=O)N[C@@H](C)C(=O)N[C@@H](CCCNC(=N)N)C(=O)N[C@@H](Cc2ccccc2)C(=O)N[C@H](C(=O)O)CSSC[C@@H](C(=O)NCC(=O)N[C@@H](CCSC)C(=O)N[C@@H](CO)C(=O)N[C@H](C(=O)N[C@@H](Cc2c[nH]c3ccccc23)C(=O)N[C@@H](CO)C(=O)O)[C@@H](C)O)NC1=O [AQ1-DRDDRD-C13-COOH] | 1.01 µM·h | 0.38 nM | 0.32 nM | –
CCCCCCCCCCCCCC(=O)N[C@@H](CCC(=O)NCC(=O)NCC(=O)NCC(=O)N[C@@H](CCC(=O)O)C(=O)N[C@@H](CCC(=O)O)C(=O)N[C@@H](CCC(=O)O)C(=O)NCCON=C(C)c1ccc(C[C@H](N)C(=O)N[C@@H](CC(C)C)C(=O)N[C@@H](Cc2ccc(O)cc2)C(=O)N[C@@H](CO)C(=O)N[C@@H](C)C(=O)N[C@@H](CC(C)C)C(=O)N[C@@H](C)C(=O)N[C@@H](CC(N)=O)C(=O)N[C@@H](CCCCN)C(=O)N[C@H]2CSSC[C@@H]3NC(=O)CNC(=O)[C@H](C(C)C)NC(=O)[C@H](Cc4c[nH]cn4)NC(=O)[C@H](CSSC[C@H](NC(=O)[C@H](CC(C)C)NC(=O)[C@H](CCCCN)NC(=O)[C@@H](NC(=O)[C@@H](NC(=O)[C@H](CCC(=O)O)NC(=O)[C@H](CCC(=O)O)NC(=O)[C@H](CCSC)NC(=O)[C@H](Cc4c[nH]c5ccccc45)NC(=O)[C@H](CO)NC(=O)[C@H](C)N)C(C)C)[C@@H](C)CC)C(=O)NCC(=O)N[C@@H](CCCNC(=N)N)C(=O)N[C@@H](CCC(=O)O)C(=O)N[C@@H](CC(C)C)C(=O)N[C@@H](C(C)C)C(=O)N[C@@H](CCCNC(=N)N)C(=O)N[C@@H](C)C(=O)N[C@@H](CCC(N)=O)C(=O)N[C@@H]([C@@H](C)CC)C(=O)N[C@@H](C)C(=O)N[C@@H]([C@@H](C)CC)C(=O)N[C@H](C(=O)NCC(=O)N[C@@H](CCSC)C(=O)N[C@@H](CO)C(=O)N[C@H](C(=O)N[C@@H](Cc4c[nH]c5ccccc45)C(=O)N[C@@H](CO)C(=O)O)[C@@H](C)O)CSSC[C@@H](C(=O)O)NC(=O)[C@H](Cc4ccccc4)NC(=O)[C@H](CCCNC(=N)N)NC(=O)[C@H](C)NC(=O)[C@H](CC(C)C)NC(=O)[C@H](CO)NC(=O)[C@H](CCCNC(=N)N)NC(=O)[C@H](CCCCN)NC(=O)[C@H]([C@@H](C)O)NC3=O)NC2=O)cc1)C(=O)O [AQ1-EEEGGG-Glu^γ-C13-CH3] | 0.274 µM·h | 0.4 nM | 0.38 nM | –
CC[C@H](C)[C@@H]1NC(=O)[C@H](C)NC(=O)[C@H]([C@@H](C)CC)NC(=O)[C@H](CCC(N)=O)NC(=O)[C@H](C)NC(=O)[C@H](CCCNC(=N)N)NC(=O)[C@H](C(C)C)NC(=O)[C@H](CC(C)C)NC(=O)[C@H](CCC(=O)O)NC(=O)[C@H](CCCNC(=N)N)NC(=O)CNC(=O)[C@@H](NC(=O)[C@H](CC(C)C)NC(=O)[C@H](CCCCN)NC(=O)[C@@H](NC(=O)[C@@H](NC(=O)[C@H](CCC(=O)O)NC(=O)[C@H](CCC(=O)O)NC(=O)[C@H](CCSC)NC(=O)[C@H](Cc2c[nH]c3ccccc23)NC(=O)[C@H](CO)NC(=O)[C@H](C)N)C(C)C)[C@@H](C)CC)CSSC[C@@H]2NC(=O)[C@@H](NC(=O)[C@H](CCCCN)NC(=O)[C@H](CC(N)=O)NC(=O)[C@H](C)NC(=O)[C@H](CC(C)C)NC(=O)[C@H](C)NC(=O)[C@H](CO)NC(=O)[C@H](Cc3ccc(O)cc3)NC(=O)[C@H](CC(C)C)NC(=O)[C@@H](N)Cc3ccc(C(C)=NOCCNC(=O)[C@H](CCC(=O)O)NC(=O)[C@H](CCC(=O)O)NC(=O)[C@H](CCC(=O)O)NC(=O)CNC(=O)CNC(=O)CNC(=O)CC[C@H](NC(=O)CCCCCCCCCCCCC(=O)O)C(=O)O)cc3)CSSC[C@H](NC(=O)CNC(=O)[C@H](C(C)C)NC(=O)[C@H](Cc3c[nH]cn3)NC2=O)C(=O)N[C@@H]([C@@H](C)O)C(=O)N[C@@H](CCCCN)C(=O)N[C@@H](CCCNC(=N)N)C(=O)N[C@@H](CO)C(=O)N[C@@H](CC(C)C)C(=O)N[C@@H](C)C(=O)N[C@@H](CCCNC(=N)N)C(=O)N[C@@H](Cc2ccccc2)C(=O)N[C@H](C(=O)O)CSSC[C@@H](C(=O)NCC(=O)N[C@@H](CCSC)C(=O)N[C@@H](CO)C(=O)N[C@H](C(=O)N[C@@H](Cc2c[nH]c3ccccc23)C(=O)N[C@@H](CO)C(=O)O)[C@@H](C)O)NC1=O [AQ1-EEEGGG-Glu^γ-C13-COOH] | 1.38 µM·h | 0.29 nM | 0.31 nM | –
CC[C@H](C)[C@@H]1NC(=O)[C@H](C)NC(=O)[C@H]([C@@H](C)CC)NC(=O)[C@H](CCC(N)=O)NC(=O)[C@H](C)NC(=O)[C@H](CCCNC(=N)N)NC(=O)[C@H](C(C)C)NC(=O)[C@H](CC(C)C)NC(=O)[C@H](CCC(=O)O)NC(=O)[C@H](CCCNC(=N)N)NC(=O)CNC(=O)[C@@H](NC(=O)[C@H](CC(C)C)NC(=O)[C@H](CCCCN)NC(=O)[C@@H](NC(=O)[C@@H](NC(=O)[C@H](CCC(=O)O)NC(=O)[C@H](CCC(=O)O)NC(=O)[C@H](CCSC)NC(=O)[C@H](Cc2c[nH]c3ccccc23)NC(=O)[C@H](CO)NC(=O)[C@H](C)N)C(C)C)[C@@H](C)CC)CSSC[C@@H]2NC(=O)[C@@H](NC(=O)[C@H](CCCCN)NC(=O)[C@H](CC(N)=O)NC(=O)[C@H](C)NC(=O)[C@H](CC(C)C)NC(=O)[C@H](C)NC(=O)[C@H](CO)NC(=O)[C@H](Cc3ccc(O)cc3)NC(=O)[C@H](CC(C)C)NC(=O)[C@@H](N)Cc3ccc(C(C)=NOCCNC(=O)CNC(=O)CNC(=O)CNC(=O)CNC(=O)[C@@H]4CCCN4C(=O)CC[C@H](NC(=O)CCCCCCCCCCCCCC(=O)O)C(=O)O)cc3)CSSC[C@H](NC(=O)CNC(=O)[C@H](C(C)C)NC(=O)[C@H](Cc3c[nH]cn3)NC2=O)C(=O)N[C@@H]([C@@H](C)O)C(=O)N[C@@H](CCCCN)C(=O)N[C@@H](CCCNC(=N)N)C(=O)N[C@@H](CO)C(=O)N[C@@H](CC(C)C)C(=O)N[C@@H](C)C(=O)N[C@@H](CCCNC(=N)N)C(=O)N[C@@H](Cc2ccccc2)C(=O)N[C@H](C(=O)O)CSSC[C@@H](C(=O)NCC(=O)N[C@@H](CCSC)C(=O)N[C@@H](CO)C(=O)N[C@H](C(=O)N[C@@H](Cc2c[nH]c3ccccc23)C(=O)N[C@@H](CO)C(=O)O)[C@@H](C)O)NC1=O [AQ1-GGGGP-Glu^γ-C14-COOH] | 2.18 µM·h | 3.9 nM | – | 9.41
